Laboratory results as given in the supplement of paper PMC12764529.
± gives the half width of the 95% confidence interval.

How the values were obtained:
[1] = folding stability dG unfold (combined trypsin and chymotrypsin); higher = more stable
In short: (§1)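 How resistant each design was to proteolysis was captured as K50, inferred by Bayesian fitting of sequencing counts. Unfolding free energy was then derived relative to a sequence-predicted unfolded-state K50 and a shared folded-state K50, per protease or combined. Digestion used trypsin and chymotrypsin at 11 threefold-diluted concentrations plus a no-protease condition, on mini-proteins under 80 residues without cysteine in a PA-tagged cDNA display construct. Designs were kept only when AlphaFold2 dimer inter-PAE was above 15.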

[2] = folding stability dG unfold from trypsin proteolysis; higher = more stable
In short: as §1

[3] = folding stability dG unfold from chymotrypsin proteolysis; higher = more stable
In short: as §1

Sequence | folding stability dG unfold [1] [kcal/mol] | folding stability dG unfold [2] [kcal/mol] | folding stability dG unfold [3] [kcal/mol]
SAGGATLTLKPGDEITLTLTVTVTVTNEDGSTSTFTTTVTLTLRIEPAPPPPPVTVERDADGNLRVTLSAGG [r13_401_TrROS_Hall] | 2.48 ± 0.18 | 2.35 ± 0.089 | 2.46 ± 0.091
SAGGATPLPDGGYRLTYTVKLSPSESVEDAPKAAAALAEKYGVTPVAITVDPSTGTVTIDILLPPEVRSAGG [r13_178_JUSTAS] | 1.44 ± 0.095 | 1.01 ± 0.046 | 1.68 ± 0.11
SAGGAVEVKEIKILPPVLDPEGDPSNPLLRVEITTKITENTPEGKKILEKTKTYLVSPENLEEVLKKLSAGG [r13_149_JUSTAS] | 2.18 ± 0.13 | 2.05 ± 0.065 | 1.98 ± 0.07
SAGGAVVTPETEGDRTFVTTTDPESGSRTVTVTTYDPTTNTATTTTYFVPPDGVPTRVATTTTPLPPTSAGG [r13_768_JUSTAS] | 1.44 ± 0.13 | 1.2 ± 0.077 | 1.49 ± 0.097
SAGGDEDDWRPIEIPLYIRNPENGHLFQITPMKIWVPDNLTIEMEMEMFDPDDGKVEKHKMTFTIPAKSAGG [r13_206_TrROS] | 1.64 ± 0.22 | 1.2 ± 0.088 | 2.09 ± 0.21
SAGGDEDKPKPKIEPKKEIEIVLPYPEDEVTPEELKARIEEETGEKITEIEVTRIPNSNEYKVKFTVESAGG [r13_457_JUSTAS] | 0.577 ± 0.13 | 0.227 ± 0.04 | 0.68 ± 0.15
SAGGDFKPPVPTTQVLTFTIETSPEDPEKAKEIAEKLKKELLEKGAVKIEVTLDPEPGTVTVTVTLVKLSAG [r5_512_JUSTAS] | 2.51 ± 0.19 | 1.95 ± 0.069 | 2.92 ± 0.063
SAGGDIKFEIGLELLPDGILVIRGSVEVRMGGQSVTYEFIIIVKIKPIPPPPPPPKPKYNPEDGKWKSAGGS [r8_269_TrROS] | 2.58 ± 0.22 | 2.32 ± 0.076 | 2.89 ± 0.11
SAGGDKKKVKIHIFPPPGMPMDNFANYIQDQLGWDRNNIKVEPMDSPQEAERRAEKNGKPEIVIFFRSAGGS [r8_245_TrROS] | 0.456 ± 0.32 | -0.216 ± 0.31 | 1.02 ± 0.54
SAGGDKLEDLPLEDVEVLRVEVIPLPDGGVLVVFEFKVSDEEGPERLVRVVVLVENDEARVFVEPLGSAGGS [r16_469_TrMRF] | 2.91 ± 0.13 | 2.05 ± 0.085 | 3.2 ± 0.081
SAGGDMWMIKVEHPNGRPFQIMINPNKPEISIQFNDGETRTFPIPKDYTIEDLAKELPPGYKVEIHPMSAGG [r13_696_TrROS] | 2.4 ± 0.17 | 2.25 ± 0.1 | 2.46 ± 0.051
SAGGDNIDVERHPHPNNMYMFSITIPPDYPLKIRYPNGPKHEIPIPDPNATIHFMFPPDEPIEIEIYPSAGG [r13_82_TrROS] | 1.2 ± 0.083 | 1.12 ± 0.019 | 1.25 ± 0.12
SAGGDPDGKPKIEIKIKDINVEPDPDNGYYRATIKIRFPNGREINFDIPMPPGQTAEQVKEQAREMIQSAGG [r13_578_TrROS] | 1.45 ± 0.17 | 1.77 ± 0.025 | 1.24 ± 0.095
SAGGDPGKPTSVTLTLTVPKDKKTVKLEVTFNPETGEAVITFPGSSKTVTLPFGSLPDVLDAAKKLLYSAGG [r13_439_TrMRF] | 2.49 ± 0.07 | 2.31 ± 0.063 | 2.65 ± 0.035
SAGGDPLVLEFDGVTVVYDPKTKTLVVFAPSSEVERLVKALGPKFEPLEIFELEDGSVVMLVRIKPESAGGS [r8_415_TrMRF] | 4.35 ± 0.13 | 3.53 ± 0.12 | 4.53 ± 0.1
SAGGDPNGKWVTINIPIWIPGPPEQAEMIAESIMEELGFEITDVKVEPHPDDPNWVRIDITLTFRKKSAGGS [r8_479_TrROS] | 2.83 ± 0.18 | 2.74 ± 0.097 | 3.03 ± 0.044
SAGGDPPNIEVVPYRVKFGGKPIPIQVFVMPNGQTIVRIKFPNGKKGWMPADDLDELLKNPFEIERVSAGGS [r16_105_TrROS] | 1.11 ± 0.14 | 1.21 ± 0.023 | 0.998 ± 0.14
